From patent US20180360879A1 (CANCURE, published 2018)

Molecular target: T1, murine 4-1BBL expressed on the surface of B16-F10 and B16-F10/4-1BBL melanoma cells (mouse, UniProt P41274 1-309)
T1 construct: whole, on cells; also called 4-1BB ligand; mouse 4-1BBL
T1 sequence (looked up): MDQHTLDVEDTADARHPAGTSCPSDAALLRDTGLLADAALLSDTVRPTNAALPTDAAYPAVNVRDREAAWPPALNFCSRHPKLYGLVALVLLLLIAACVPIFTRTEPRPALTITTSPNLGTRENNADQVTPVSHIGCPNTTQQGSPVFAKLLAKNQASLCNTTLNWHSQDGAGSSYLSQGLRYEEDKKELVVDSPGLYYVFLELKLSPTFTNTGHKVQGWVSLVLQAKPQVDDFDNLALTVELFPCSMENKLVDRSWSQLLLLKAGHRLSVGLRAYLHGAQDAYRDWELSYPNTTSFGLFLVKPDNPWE
Assay: flow cytometry; cells incubated with the chimera, detected with PE-conjugated IgG Fcγ Ab
Method: FIG. 2. B16-F10-4-1BBL cells express functional 4-1BBL binding to 4-1BB. Cells were incubated with 41BB/TNFRSF9/Fc chimera and stained using a PE-conjugated IgG Fcγ Ab to detect binding to 4-1BBL, measured using the FACSCalibur flow cytometer. The black and the green histograms represent the unstained control samples of B16-F10 and B16-F10-4/1BBL sorted cells respectively. The red and the purple histograms show the B16-F10 and B16-F10/4-1BBL cells respectively stained only with the IgG Fcγ PE secondary Ab. The blue histogram represents the B16-F10 cells incubated with the 4-1BB/TNFRSF9/Fc Chimera and stained with the IgG Fcγ PE secondary Ab. The maroon histogram depicts populations of cells further subjected to sorting for 4-1BBL, re-expanded in culture before immunostaining with the 41BB/TNFRSF9/Fc chimera and the IgG Fcγ PE secondary Ab
To further test that the 4-1BBL expressed on the B16-F10/4-1BBL cells was intact and functional, an additional assay was performed for the binding of 4-1BBL on the cells to its receptor, 4-1BB. […]
Transfection efficiency was determined by staining B16-F10 sublines with antibodies to detect the cell surface markers, B7.1 and 4-1BBL. […] The presence of both of these cell surface molecules were detected using either flow cytometer. […]

binding result: binds
B1: recombinant mouse 4-1BB/Fc chimera (Fc fusion, UniProt P20334 24-187, looked up)
chain: VQNSCDNCQPGTFCRKYNPVCKSCPPSTFSSIGGQPNCNICRVCAGYFRFKKFCSSTHNAECECIEGFHCLGPQCTRCEKDCRPGQELTKQGCKTCSLGTFNDQNGTGVCRPWTNCSLDGRSVLKTGTTEKDVVCGPPVVSFSPSTTISVTPEGGPGGHSLQVL
notes: Bought reagent; It calls it a 'primary antibody', but it is the receptor 4-1BB fused to Fc; also called 4-1BB/TNFRSF9/Fc Chimera; 41BB/TNFRSF9/Fc chimera; not shown: Fc part of the chimera
